Results reported in US20210221882A1 (Sanofi, published 2021).
Where a chain is given by its changes, count along the chain named.

Columns and labels:
Assay in all cases: cell-based or functional assay
[1] = biological target: T1, cynomolgus monkey IL-4 (cynomolgus monkey, UniProt P79339 25-153, limits assumed)
T1 sequence (looked up): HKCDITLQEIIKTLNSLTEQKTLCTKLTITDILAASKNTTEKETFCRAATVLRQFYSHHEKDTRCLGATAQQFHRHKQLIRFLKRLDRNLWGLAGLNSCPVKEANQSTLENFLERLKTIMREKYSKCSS

[2] = biological target: T2, Recombinant human IL-4 (human, UniProt P05112 25-153)
T2 sequence (looked up): T1 sequence (looked up) with K26E, I29V, L33F

[3] = biological target: T2, Recombinant human IL-4; remark: listed apart in the source
[4] = biological target: T2, Recombinant human IL-4; remark: listed apart in the source

Mean IC50, inhibition of TF-1 cell proliferation induced by cynomolgus IL-4 [1]: 0.53 nM | Mean IC50, inhibition of TF-1 cell proliferation induced by human IL-4 [2]: 2.03 nM | IC50, IL-4/IL-13-stimulated IL-6 release from LL97A IPF lung fibroblasts (combination of 15 ng/ml rhIL-13 plus 5 ng/ml rhIL-4) [3]: 7.8 nM | IC50, IL-4/IL-13-stimulated eotaxin release from LL97A IPF lung fibroblasts (combination of 15 ng/ml rhIL-13 plus 5 ng/ml rhIL-4) [3]: 3.8 nM | IC50, IL-4 and IL-13 induced LOX gene expression in IPF pulmonary fibroblasts (Taqman) [3]: 3 to 6 nM | IC50, inhibition of IL-4-induced Stat6 phosphorylation in human blood monocytes, donor 217 [4]: 0.78 nM | IC50, inhibition of IL-4-induced Stat6 phosphorylation in human blood monocytes, donor 229 [4]: 0.73 nM | IC50, inhibition of IL-4-induced Stat6 phosphorylation in human blood monocytes, donor 245 [4]: 1.32 nM
B1: huTBTI3_2_1 (bispecific antibody)
VH: EVQLKESGPGLVAPGGSLSITCTVSGFSLTDSSINWVRQPPGKGLEWLGMIWGDGRIDYADALKSRLSISKDSSKSQVFLEMTSLRTDDTATYYCARDGYFPYAMDFWGQGTSVTVSSGGGGSGGGGSQVQLQQSGPELVKPGASVKISCKASGYSFTSYWIHWIKQRPGQGLEWIGMIDPSDGETRLNQRFQGRATLTVDESTSTAYMQLRSPTSEDSAVYYCTRLKEYGNYDSFYFDVWGAGTLVTVSS
VL: DIVLTQSPASLAVSLGQRATISCRASESVDSYGQSYMHWYQQKAGQPPKLLIYLASNLESGVPARFSGSGSRTDFTLTIDPVQAEDAATYYCQQNAEDSRTFGGGTKLEIKGGGGSGGGGSDIQMTQSPASLSVSVGDTITLTCHASQNIDVWLSWFQQKPGNIPKLLIYKASNLHTGVPSRFSGSGSGTGFTLTISSLQPEDIATYYCQQAHSYPFTFGGGTKLEIK
